Test results published in paper PMC13570301.

T1: CHIP G33S, recombinant, C-terminal His tag, Q9UNE7-1
T1 chain: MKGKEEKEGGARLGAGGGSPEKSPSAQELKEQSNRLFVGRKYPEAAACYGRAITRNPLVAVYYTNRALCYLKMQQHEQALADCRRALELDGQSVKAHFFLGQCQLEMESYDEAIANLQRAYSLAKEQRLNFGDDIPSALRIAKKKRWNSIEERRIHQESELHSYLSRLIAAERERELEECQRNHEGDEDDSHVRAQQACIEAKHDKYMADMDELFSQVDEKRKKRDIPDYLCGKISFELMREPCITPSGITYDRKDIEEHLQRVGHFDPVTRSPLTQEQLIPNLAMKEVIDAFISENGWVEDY

T2: CHIP-myc wild type (pcDNA3-CHIP-myc) (human), Q9UNE7
T2 chain: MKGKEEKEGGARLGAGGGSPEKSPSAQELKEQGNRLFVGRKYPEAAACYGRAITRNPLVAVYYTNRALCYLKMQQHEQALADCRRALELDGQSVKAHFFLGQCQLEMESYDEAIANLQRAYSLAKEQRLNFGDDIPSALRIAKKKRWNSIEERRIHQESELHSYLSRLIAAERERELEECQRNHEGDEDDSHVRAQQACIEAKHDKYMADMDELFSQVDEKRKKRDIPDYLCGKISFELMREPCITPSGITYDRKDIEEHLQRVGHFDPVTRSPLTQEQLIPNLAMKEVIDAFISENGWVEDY


Columns and labels:
[1] = target: T1, CHIP G33S, recombinant, C-terminal His …; assay: mass photometry; settings: chain shown with the change, self-association, fraction weighted by number of monomeric subunits, n = 3, read off a plot
[2] = target: T2, CHIP-myc wild type (pcDNA3-CHIP-myc) …; assay: native gel or EMSA; Blue native PAGE and immunoblot of lysates (Native PAGE sample buffer, 1% digitonin) of transfected COS-7 cells kept at 37 °C or heat-shocked at 42 °C for 2 h; self-association; settings: remark: other sources report otherwise

Row | other: fraction of total CHIP in octamer (8n) ([1]; parent: est. 0.12) | other: fraction of total CHIP in hexamer (6n) ([1]; parent: est. 0.23) | other: fraction of total CHIP in dimer (2n) ([1]; parent: est. 0.32) | other: fraction of total CHIP in tetramer (4n) ([1]; parent: est. 0.33) | stoichiometry N [2] | Binder
1 | 0.13 | 0.2 | 0.38 | 0.3 | – | CHIP wild type, recombinant, C-terminal His tag (pET30-CHIP-His), Q9UNE7-1 G33S (protein) MKGKEEKEGGARLGAGGGSPEKSPSAQELKEQSNRLFVGRKYPEAAACYGRAITRNPLVAVYYTNRALCYLKMQQHEQALADCRRALELDGQSVKAHFFLGQCQLEMESYDEAIANLQRAYSLAKEQRLNFGDDIPSALRIAKKKRWNSIEERRIHQESELHSYLSRLIAAERERELEECQRNHEGDEDDSHVRAQQACIEAKHDKYMADMDELFSQVDEKRKKRDIPDYLCGKISFELMREPCITPSGITYDRKDIEEHLQRVGHFDPVTRSPLTQEQLIPNLAMKEVIDAFISENGWVEDY
2 | – | – | – | – | 2 | CHIP-myc wild type (pcDNA3-CHIP-myc), Q9UNE7-1 1-303 (enzyme) MKGKEEKEGGARLGAGGGSPEKSPSAQELKEQGNRLFVGRKYPEAAACYGRAITRNPLVAVYYTNRALCYLKMQQHEQALADCRRALELDGQSVKAHFFLGQCQLEMESYDEAIANLQRAYSLAKEQRLNFGDDIPSALRIAKKKRWNSIEERRIHQESELHSYLSRLIAAERERELEECQRNHEGDEDDSHVRAQQACIEAKHDKYMADMDELFSQVDEKRKKRDIPDYLCGKISFELMREPCITPSGITYDRKDIEEHLQRVGHFDPVTRSPLTQEQLIPNLAMKEVIDAFISENGWVEDY
